Test results reported in PMC4670825.

Columns and labels:
FOXO3 = FOXO3 (UniProt O43524 1-673); assay: fluorescence anisotropy
NF-κB RelA (p65) = NF-κB RelA (p65) (UniProt Q04206 1-551); assay: fluorescence anisotropy
Sequence of NF-κB RelA (p65) (Q04206 whole entry): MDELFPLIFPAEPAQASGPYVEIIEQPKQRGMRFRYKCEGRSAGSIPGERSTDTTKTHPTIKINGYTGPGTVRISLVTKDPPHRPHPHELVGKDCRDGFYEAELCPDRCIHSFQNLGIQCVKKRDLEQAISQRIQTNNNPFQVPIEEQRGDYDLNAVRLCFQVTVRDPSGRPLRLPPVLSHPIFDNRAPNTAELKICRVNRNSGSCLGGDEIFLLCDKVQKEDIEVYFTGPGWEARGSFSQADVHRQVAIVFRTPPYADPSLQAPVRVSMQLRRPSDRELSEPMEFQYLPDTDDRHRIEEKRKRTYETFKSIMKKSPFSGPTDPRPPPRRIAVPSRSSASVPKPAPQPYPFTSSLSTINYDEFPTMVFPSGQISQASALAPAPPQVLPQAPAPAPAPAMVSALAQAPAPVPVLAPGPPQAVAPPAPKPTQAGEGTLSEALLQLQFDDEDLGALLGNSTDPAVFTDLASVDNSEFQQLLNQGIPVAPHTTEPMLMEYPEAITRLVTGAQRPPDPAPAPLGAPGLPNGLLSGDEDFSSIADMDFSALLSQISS

Sequence of FOXO3 (O43524 whole entry): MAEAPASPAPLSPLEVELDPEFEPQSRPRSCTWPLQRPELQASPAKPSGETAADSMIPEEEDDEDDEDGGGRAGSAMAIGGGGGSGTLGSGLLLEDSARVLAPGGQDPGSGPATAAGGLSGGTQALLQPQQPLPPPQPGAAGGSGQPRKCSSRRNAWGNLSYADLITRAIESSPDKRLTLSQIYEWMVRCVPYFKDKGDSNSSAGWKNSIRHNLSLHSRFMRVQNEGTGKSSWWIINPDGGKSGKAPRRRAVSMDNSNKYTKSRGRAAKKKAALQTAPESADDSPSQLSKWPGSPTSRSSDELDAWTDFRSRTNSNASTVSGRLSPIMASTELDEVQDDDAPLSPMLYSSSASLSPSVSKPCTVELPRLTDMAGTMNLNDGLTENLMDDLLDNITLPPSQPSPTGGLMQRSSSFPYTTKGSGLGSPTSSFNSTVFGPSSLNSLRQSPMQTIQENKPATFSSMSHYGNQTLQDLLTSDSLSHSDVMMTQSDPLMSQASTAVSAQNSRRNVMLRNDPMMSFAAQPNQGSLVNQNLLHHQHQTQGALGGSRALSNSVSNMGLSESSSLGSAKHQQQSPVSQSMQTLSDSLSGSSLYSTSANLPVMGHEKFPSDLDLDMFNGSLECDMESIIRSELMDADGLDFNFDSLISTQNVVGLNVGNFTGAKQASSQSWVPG

B1: FOXO3 consensus duplex (dsDNA)
DNA 1: CGCATCCTATGTAAACAACTCGAGTC
DNA 2: GACTCGAGTTGTTTACATAGGATGCG
**Q.** Which results are given for B1?
**A.** binding result (FOXO3): binds; binding result (NF-κB RelA (p65)): no binding
